In FireProtDB (doi:10.1021/bi027116n):
“And” between values parts separate entries of the source, which are not always exact repeats. Equal entries are not always repeated.

Conditions: Spinacia oleracea, reversible: no; for denaturant midpoint (higher = more stable): 20 °C, GdnHCl; for Tm: Thermal

Ferredoxin-1, chloroplastic wild type, P00221, sequence (P00221 whole entry): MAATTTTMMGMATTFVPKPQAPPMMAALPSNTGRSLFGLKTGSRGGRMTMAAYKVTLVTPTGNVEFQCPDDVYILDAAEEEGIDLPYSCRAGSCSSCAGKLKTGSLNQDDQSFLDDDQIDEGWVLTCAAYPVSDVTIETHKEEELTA

With “Ferredoxin-1, chloroplastic wild type, P00221” the “denaturant midpoint (higher = more stable)” value (shortened to “denaturant midpoint”) (pH 7, Absorbance, phosphate) was 2.1 M and 1.7 M and 1.5 M, the “denaturant midpoint” value (pH 7, CD, phosphate) was 2.1 M and 1.6 M and the “denaturant midpoint” value (pH 7, Emission, phosphate) was 1.6 M. For the same substance, the Tm (pH 7, Absorbance, Phosphate) was 70 °C, the “denaturant midpoint” value (pH 10, Absorbance, Glycine-OH) was 3 M and 1.5 M and the “denaturant midpoint” value (pH 10, CD, Glycine-OH) was 1.6 M. For the same substance, the “denaturant midpoint” value (pH 10, Emission, Glycine-OH) was 1.6 M and the Tm (pH 10, Absorbance, Glycine-OH) was 53 °C.
